Measurements reported in patent US20140289906A1, “Compositions Having Dicamba Decarboxylase Activity and Methods of Use” (priority 2013, published 2014).

B1: 75 (protein, listed as Ectocarpus siliculosus)
chain: MAKIDSYTHFACPAFMDHLEAESGHPMVFRGLFSSIPELSDIDLRIRYMDEHGIDVHCLVPLPWLECEPGLHADEGKALEACRIANDEMARVVARFPDRLIGVALIPTTTEQAMIQETTRAVKELGMAGVALFVGPTAKPPDMACFEGLYRTCEELGAVVWMHPCRPQSYADYDSYKGEGSKHQIWNTFGWIYDTSVAMVHIALAGVFRRYPGLKVVTHHHGAMVPFFTARFDTQRRNFQEVEGDDLLEDLRLFYCDTATFGESAANIQQAIDFFGKSQVLFGTDTPMDMGTRGMFTRTTIASVEALGAAPEDKESFYAGNVLDMLGERFAGISGARGAVAARPKGDSTRIAASL
B2: 71 (protein, listed as Burkholderia dolosa)
chain: MARAGHRAARTRQSRPGDRTMTCSCCMSAGRRRVLGAFAALAGAPKGPRAASAAQPAAASKPTRGDATARNRHSRALLPGKASASWSATKASGSGGAFAWDDTTFTFRTPAGGLGPLPMKFIDVDARLRDMDASGVDVQALSLSVPMAYWGDRPFNAKLARAWNTAASRVHVRAPDRFVVLATLPMLDATDAIDELERASELPGVRGVYMGTNIDNRDLDDPRFAPVFARIEQLGLPVFLHPQQTVGGARLGDFYLSNLLGNPFDTAIAASHLILGGVLDRHPALHFTLPHAGGALPILVGRLDAGWTVRAETRRLAHQPSGYLRRFSYDTVSHSGPVLNFLIENVGIDRLVLGSDYCFDMGYEQPVRFLDRLDLTPDERAMVIGGNAGRLLRI
B3: 72 (protein)
chain: MADCPCCVSPKRRRLLGSVSAIAAGMMAGLPALAAQPSTAAAGTGKPLSIDIHAHYYSESFLGLLGGEGKQFGGHFFRNDDSFTFQTPAGGLGPLPMKFIDVEQRVRDMDNSGVDVQAISLSVPMVYWADRTLNAKLARAWNTAASDVHRKHPTRFVVLATLPMLNANDAIDELEFAAGLPGVRGIYMGTNINNRDLDDPLFSPIFKRIEQLNLPIFLHPQQTVGGARLADFYLSNLLGNPFDTAIAASHLILGGVLDKYPALHFSLPHAGGALPILVGRIDAGWSMRSETKRVAQKPSSYLRRFSYDTISHSGPTLDFLIRNIGADRLVLGSDYCFDMGYEQPVRFLDRLALPDDQKRMVVGGNAARLLNL
modifications: Cupriavidus necator
B4: 74 (protein, listed as Ramlibacter tataouinensis)
chain: MATVIDVHTHMFTTKWLELLKKEGGQYNIQTRPDGQQEIFRGNTPVVIPQKGHFDWKLRIQHMDQAGIDVSVVSLTCPNVYWGGEDVSVRAAREANDNVAQAQTAYPDRIRWFASLPWEYMATVIDVHTHMFTTKWLELLKKEGGQYNIQTRPDGQQEIFRGNTPVVIPQKGHFDWKLRIQHMDQAGIDVSVVSLTCPNVYWGGEDVSVRAAREANDNVAQAQTAYPDRIRWFASLPWEYPQRAVEELERSCAQGAAGVMVLANVAGRSLTDPLFAPVWAEIDRRALPVLVHPTDPPGVDLMDMTKFDLSWSVGFMFDTTLAITRMIFEGFFDRYPNLRIIASHGGGTLPYLVGRFEKGDEVELASRRQMKRKPTDYLRHIHYDCITYNLGALQYLISVVGAGQVMFGTDWPHWVHDTRGAFANTAQLPQEQTRAVRGANAQRLFKL
B5: 73 (protein, listed as Sphaerobacter thermophilus)
chain: MARIDAHAHAQPPEYLDALLASGRYESVRDAEGRIVVRERGSRFLTITPQMHHPEQRVAEMDEAGIDMQILSVTTPQVYFLQGQAAVDLARRCNDYLADIVRSYPTRFRALASVPLTADPDAAVREFVRCLDDLGMVGAIIGSNIDGRPIDDPAFDAFYAEADRRATTLFIHPMVPAGIEVMNPYALAPLVGFMFDTTLAVSRLIFSGFFERYPRVKVLVGHLGAAVPYLAGRLDIGWRSYSDCQGIPHPPTEYIRRLYLDTVSFHAPALRCALETVGPDRIVFGSDYPHVIGDVGGAIASIQQALPATTHDGVLGHTAAELFGVSA

Assay: 14C assay: 14CO2 capture from [14C]-carboxyl-labeled dicamba with IPTG-induced recombinant E. coli cells
Conditions: IPTG-induced recombinant E. coli cells; 14CO2 from [14C]-carboxyl-labeled dicamba
In the case of B1, the “Dicamba Decarboxylase Activity” value is reported as “Low”. In the case of B2, the “Dicamba Decarboxylase Activity” value is reported as “Low”. For B3, the “Dicamba Decarboxylase Activity” value was “Low”. With B4 the “Dicamba Decarboxylase Activity” value was “Low”. In the case of B5, the “Dicamba Decarboxylase Activity” value is reported as “Low”.

Same assay, conditions: dicamba decarboxylation activity
With B1 the “Enzymatic Detection level” value was “Low”. With B2 the “Enzymatic Detection level” value was “Low”. With B3 the “Enzymatic Detection level” value was “Low”. For B4, the “Enzymatic Detection level” value was “Low”. With B5 the “Enzymatic Detection level” value was “Low”.
